B1: HEEH_KT_rd6_3632 (parent)
chain: DAEELIELVERALKEGREIILLGVRITSEEAGKWFIEWIRRFL

Variants of: B1
Experiment: folding stability dG (cDNA display proteolysis); higher = more stable
Conditions: PBS, room temperature

Row | Variant | folding stability dG [kcal/mol]
1 | V24S | 2.86
2 | K14I | 3.6
3 | R41A | 3.62
4 | A31M | 4.08
5 | L5Y | 3.47
6 | G23Q | 3.61
7 | A31D | 3.88
8 | L21K | 2.98
9 | L8E | 3.29
10 | E7D | 3.7
11 | D1K | 4.04
12 | V9G | 2.81
13 | I6M | 3.3
14 | E29Y | 3.96
15 | I20Y | 3.27
16 | R25H | 3.72
17 | I39H | 2.73
18 | I26M | 3.32
19 | T27W | 3.95
20 | I36G | 2.92
21 | T27E | 3.44
22 | K33H | 3.51
23 | A12Y | 3.33
24 | F35R | 2.98

Row | Variant | folding stability dG [kcal/mol]
25 | R11P | 3.08
26 | W34C | 3.78
27 | A12L | 3.74
28 | L13P | 2.88
29 | E29Q | 3.97
30 | R25P | 3.14
31 | E18M | 3.66
32 | A31L | 4.06
33 | E7R | 4.18
34 | V9L | 3.59
35 | E4F | 4.15
36 | R41V | 3.7
37 | S28N | 3.78
38 | W38E | 2.62
39 | T27M | 3.88
40 | R11T | 3.62
41 | A31F | 3.83
42 | L5K | 2.83
43 | E30T | 3.57
44 | G16V | 3.74
45 | G23F | 3.93
46 | L5E | 2.77
47 | F35Q | 2.85
48 | I39L | 4.03

Row | Variant | folding stability dG [kcal/mol]
49 | K33D | 3.38
50 | L21V | 3.9
51 | W34N | 3.48
52 | T27F | 4.03
53 | L5Q | 2.83
54 | I39R | 2.71
55 | G23C | 3.82
56 | I20R | 3.13
57 | I36Y | 3.46
58 | E30A | 4
59 | G16L | 4.32
60 | R17Y | 3.84
61 | A2F | 4.2
62 | L13Y | 3.28
63 | G32W | 4.07
64 | I6C | 3.95
65 | W38S | 2.71
66 | F42L | 3.73
67 | E4H | 4.09
68 | E18H | 3.85
69 | T27V | 3.91
70 | S28F | 3.62
71 | I26V | 3.29
72 | L5T | 3.08

Row | Variant | folding stability dG [kcal/mol]
73 | D1Q | 3.93
74 | E4A | 3.96
75 | R41E | 3.37
76 | A12R | 3.17
77 | E37W | 3.88
78 | F42P | 2.5
79 | F42G | 3.06
80 | L8R | 3.53
81 | E3L | 3.97
82 | L5C | 3.74
83 | D1P | 3.89
84 | I26C | 4.36
85 | W34K | 3.81
86 | F42E | 2.91
87 | E37K | 3.66
88 | I39D | 2.51
89 | E15G | 3.31
90 | K33M | 3.57
91 | L43R | 3.03
92 | I6W | 3.99
93 | I6Y | 3.38
94 | K14P | 3.27
95 | R40H | 3.32
96 | I26W | 3.39

Row | Variant | folding stability dG [kcal/mol]
97 | R17V | 3.79
98 | L8V | 3.26
99 | V24G | 3.22
100 | L5S | 2.85
101 | I6L | 3.62
102 | E29K | 3.82
103 | R11F | 3.16
104 | W34P | 2.66
105 | V24Y | 3.55
106 | L21H | 2.92
107 | D1A | 3.97
108 | G16H | 3.58
109 | R17F | 3.63
110 | G23K | 3.55
111 | V24W | 3.76
112 | E30H | 3.59
113 | A12W | 3.76
114 | I36Q | 3.11
115 | W38H | 2.82
116 | A2Q | 3.55
117 | E10K | 3.93
118 | F35N | 2.53
119 | E4V | 3.91
120 | A31G | 3.71

Row | Variant | folding stability dG [kcal/mol]
121 | L21G | 2.83
122 | R11N | 3.51
123 | E3T | 3.83
124 | I36R | 3.17
125 | A2S | 3.42
126 | W34V | 3.35
127 | R11H | 3.45
128 | G23H | 3.6
129 | A2V | 4.05
130 | I19T | 2.97
131 | W34L | 3.72
132 | L43I | 3.61
133 | L8W | 3.7
134 | E37R | 3.62
135 | I36H | 3.15
136 | E10T | 3.92
137 | E10N | 3.82
138 | E29A | 3.89
139 | I26E | 3.33
140 | G23D | 3.37
141 | I19Q | 2.91
142 | R11M | 3.41
143 | R17N | 3.3
144 | L13Q | 2.95

Row | Variant | folding stability dG [kcal/mol]
145 | L13V | 3.54
146 | E18S | 3.83
147 | E10Q | 3.83
148 | R25G | 3.32
149 | E30S | 3.69
150 | E18K | 3.55
151 | L5A | 2.97
152 | S28D | 3.63
153 | S28K | 3.17
154 | I36S | 3.02
155 | E29F | 3.88
156 | I19M | 3.23
157 | L22V | 3.3
158 | V9Q | 2.7
159 | W38D | 2
160 | I19V | 3.4
161 | I19F | 3.43
162 | R17Q | 3.27
163 | E15I | 3.62
164 | V9P | 2.93
165 | G23W | 4.11
166 | S28M | 3.33
167 | L13N | 2.88

— the MegaScale stability set (Tsuboyama et al. 2023)
